Assay results as given in article PMC9913320, “Development of ^99mTc-Hynic-Adh-1 Molecular Probe Specifically Targeting N-Cadherin and Its Preliminary Experimental Study in Monitoring Drug Resistance of Non-Small-Cell Lung Cancer” (Cancers, 2023).

Legend:
[1] = Biodistribution in xenograft-bearing nude mice, PC9GR tumor; assay type: in vivo, BALB/c nude mice; conditions: mouse, iv, 0.74 MBq, xenograft-bearing nude mice, i.v., read-out: Biodistribution, T(PC9GR)
Method: (§1) All animal research was performed in accordance with the Zhejiang University Institutional Animal Care and Use Committee guidelines. PC9 and PC9GR cells (2 × 10^6 cells per mice) were injected subcutaneously into the flanks of 2- to 4-week old BALB/c nude mice (left: PC9GR, right: PC9). The cells were allowed to grow 3–5 weeks until tumors were 1 ± 0.5 cm^3 in volume. Normal C57/BL6 mice (aged 6 to 8 wks old) were obtained from the Animal Center of the First Affiliated Hospital of Zhejiang University. All animals were maintained with free access to food and water and used a standard diet, bedding and environment.
(§2) The radiotracer (0.1 mL, 0.74 MBq) was injected intravenously into normal C57/BL6 mice and xenograft models as previously described (n = 4 per group per time) via the tail vein. After different time intervals (30, 60, 120 and 240 min), the mice were sacrificed by cervical dislocation, and their blood, tumors and major organs (brain, heart, lung, liver, spleen, kidney, stomach, intestine, muscle, bone and skin) were harvested and weighed. The radioactivity of each sample was measured with a γ-counter. Values are shown as the percentage of the injected dose per gram (%ID/g), which corrected for background and decay to maintain consistency.

PC9GR tumor [2] = test: as above; assay type: in vivo, BALB/c nude mice; conditions: biodistribution, tumor-bearing mice
Method: as §1, §2

[3] = Pharmacokinetic studies (blood radioactivity, PK solver); assay type: in vivo; conditions: C57/BL6 mice, i.v.
Method: For the pharmacokinetic studies, four C57/BL6 mice weighing 18–20 g were administrated with ^99mTc-HYNIC-ADH1 (0.1 mL, 0.74 MBq) by i.v. injection into the tail vein. An array of blood samples was acquired and weighed by pinching the tail with a syringe at 2, 5, 15, 20, 30, 45, 60, 90, 120 and 240 min post-injection (p.i.). Radioactivity was calculated as the % of dose per g of tissue per body weight (%ID/g) expressed over time. […] Pharmacokinetics was assayed using PK solver 2.0.

PC9GR tumor [4] = test: Small animal SPECT/CT imaging, ROI analysis; assay type: in vivo, BALB/c nude mice; conditions: 1 h
Method: as §1
(§3) Xenograft models were imaged using a nanoScan SPECT/CT (Mediso, Hungary) in vivo imaging system and anesthetized with 2% isoflurane before imaging. Mice in the non-blocked group (n = 4) were injected via tail vein with 3.7 MBq (100 μL) of radiotracer and imaged at different time points (1, 2 and 6 h). In the blocked group, 100 μL excess ADH-1 was injected through the tail vein 30 min in advance, and then the same volume and dose of imaging agent were injected for 1 h after imaging.
(§4) Three-dimensional ROIs were delineated along the edge of the tumor using SPECT/CT analysis software. Spherical ROIs of 0.03 cm^3 were delineated in organs or tissues (liver and muscle). The radiation intensity of each region was measured, and the tumor/non-tumor ratio was calculated.

PC9 tumor = test: Small animal SPECT/CT imaging, ROI analysis; assay type: in vivo, BALB/c nude mice; conditions: non-blocked, 1 h
Method: as §1, §3, §4

[5] = Biodistribution in xenograft-bearing nude mice, organs; assay type: in vivo, BALB/c nude mice; conditions: mouse, iv, 0.74 MBq, i.v.; for tissue uptake at 0.5 h: 30 min; for tissue uptake at 1 h: 60 min; for tissue uptake at 2 h: 120 min; for tissue uptake at 4 h: 240 min
Method: as §1, §2

[6] = In vitro stability in PBS; assay type: physicochemical; conditions: PBS pH 7.4, room temperature
Method: In vitro stability studies of ^99mTc-HYNIC-ADH1 were performed in FBS as well as PBS solution. A total of 50 μL of ^99mTc-HYNIC-ADH1 was mixed with 950 μL of FBS (or PBS), and its radioactivity was measured after being incubated at room temperature for 0.5, 1, 2, 4, 6 and 24 h, respectively.
For stability assessments, ^99mTc-HYNIC-ADH-1 (3.7 MBq) was incubated in PBS (pH 7.4) or FBS for 24 h. […] The radiochemical purities were 98.51%, 98.50%, 97.97%, 98.02%, 98.81%, 98.09% and 98.09% in FBS at room temperature at 0.5, 1, 2, 3, 6, 12 and 24 h, respectively.

[7] = blood, read-out: Biodistribution, Blood
[8] = bone, read-out: Biodistribution, Bone
[9] = brain, read-out: Biodistribution, Brain
[10] = heart, read-out: Biodistribution, Heart
[11] = intestine, read-out: Biodistribution, Intestine
[12] = kidney, read-out: Biodistribution, Kidney
[13] = liver, read-out: Biodistribution, Liver
[14] = lung, read-out: Biodistribution, Lung
[15] = muscle, read-out: Biodistribution, Muscle
[16] = skin, read-out: Biodistribution, Skin
[17] = spleen, read-out: Biodistribution, Spleen
[18] = stomach, read-out: Biodistribution, Stomach

CC(=O)N[C@H]1CSSC[C@@H](C(=O)NCCNC(=O)c2ccc(NN)nc2)NC(=O)[C@H](C(C)C)NC(=O)[C@H](C)NC(=O)[C@H](Cc2c[nH]cn2)NC1=O [^99mTc-HYNIC-ADH-1, metal not drawn]
tissue uptake at 2 h ([1]; tumor (PC9GR), 120 min): 1.32 ± 0.08 %ID/g | tissue uptake at 0.5 h ([1]; tumor, 30 min): 1.09 ± 0.15 %ID/g | tissue uptake at 1 h ([1]; tumor, 60 min): 1.26 ± 0.1 %ID/g | tissue uptake at 4 h ([1]; tumor, 240 min): 0.75 ± 0.19 %ID/g | T/NT PC9GR/Kidney (PC9GR tumor [2]; 30 min): 0.42 ± 0.10 | T/NT PC9GR/Liver (PC9GR tumor [2]; 30 min): 1.64 ± 0.24 | T/NT PC9GR/Muscle (PC9GR tumor [2]; 30 min): 2.41 ± 0.12 | T/NT PC9GR/Kidney (PC9GR tumor [2]; 1 h): 0.27 ± 0.04 | T/NT PC9GR/Liver (PC9GR tumor [2]; 1 h): 1.58 ± 0.12 | T/NT PC9GR/Muscle (PC9GR tumor [2]; 1 h): 2.64 ± 0.47 | T/NT PC9GR/Kidney (PC9GR tumor [2]; 2 h): 0.49 ± 0.20 | T/NT PC9GR/Liver (PC9GR tumor [2]; 2 h): 2.14 ± 0.69 | T/NT PC9GR/Muscle (PC9GR tumor [2]; 2 h): 5.19 ± 1.89 | T/NT PC9GR/Kidney (PC9GR tumor [2]; 4 h): 0.26 ± 0.13 | T/NT PC9GR/Liver (PC9GR tumor [2]; 4 h): 1.36 ± 0.69 | T/NT PC9GR/Muscle (PC9GR tumor [2]; 4 h): 3.62 ± 1.92 | AUC(0–t) [3]: 0.0593 µg·min/L | AUC(0–∞) [3]: 0.0595 µg·min/L | K10 [3]: 0.0815 min⁻¹ | K12 [3]: 0.1511 min⁻¹ | K21 [3]: 0.0794 min⁻¹ | V1 [3]: 68.753 L/kg | T1/2α ([3]; two-compartment model): 2.3925 min | half-life ([3]; mouse, blood, iv, 0.74 MBq, two-compartment model, read-out: T1/2β): 31 min | T/N (tumor to adjacent muscle radioactivity intensity, SPECT/CT ROI) (PC9GR tumor [4]; blocked group (excess unlabeled ADH-1 30 min in advance)): 3.69 ± 0.50 | T/N (tumor to adjacent muscle radioactivity intensity, SPECT/CT ROI) (PC9GR tumor [4]; non-blocked): 7.73 ± 0.54 | T/N (tumor to adjacent muscle radioactivity intensity, SPECT/CT ROI) (PC9 tumor): 3.66 ± 0.78 | tissue uptake at 0.5 h [5, 7]: 1.35 ± 0.18 %ID/g | tissue uptake at 1 h [5, 7]: 0.84 ± 0.03 %ID/g | tissue uptake at 2 h [5, 7]: 0.49 ± 0.05 %ID/g | tissue uptake at 4 h [5, 7]: 0.48 ± 0.2 %ID/g | tissue uptake at 0.5 h [5, 8]: 0.46 ± 0.03 %ID/g | tissue uptake at 1 h [5, 8]: 0.37 ± 0.04 %ID/g | tissue uptake at 2 h [5, 8]: 0.26 ± 0.04 %ID/g | tissue uptake at 4 h [5, 8]: 0.21 ± 0.01 %ID/g | tissue uptake at 0.5 h [5, 9]: 0.05 ± 0.01 %ID/g | tissue uptake at 1 h [5, 9]: 0.07 ± 0.01 %ID/g | tissue uptake at 2 h [5, 9]: 0.05 %ID/g | tissue uptake at 4 h [5, 9]: 0.03 %ID/g | tissue uptake at 0.5 h [5, 10]: 0.57 ± 0.03 %ID/g | tissue uptake at 1 h [5, 10]: 0.42 ± 0.08 %ID/g | tissue uptake at 2 h [5, 10]: 0.28 ± 0.01 %ID/g | tissue uptake at 4 h [5, 10]: 0.23 ± 0.01 %ID/g | tissue uptake at 0.5 h [5, 11]: 0.43 ± 0.03 %ID/g | tissue uptake at 1 h [5, 11]: 1.38 ± 1.01 %ID/g | tissue uptake at 2 h [5, 11]: 0.58 ± 0.12 %ID/g | tissue uptake at 4 h [5, 11]: 0.88 ± 0.38 %ID/g | tissue uptake at 0.5 h [5, 12]: 3.77 ± 1 %ID/g | tissue uptake at 1 h [5, 12]: 2.85 ± 0.54 %ID/g | tissue uptake at 2 h [5, 12]: 3.13 ± 0.7 %ID/g | tissue uptake at 4 h [5, 12]: 3.13 ± 0.54 %ID/g | tissue uptake at 0.5 h [5, 13]: 0.76 ± 0.06 %ID/g | tissue uptake at 1 h [5, 13]: 0.66 ± 0.06 %ID/g | tissue uptake at 2 h [5, 13]: 0.59 ± 0.01 %ID/g | tissue uptake at 4 h [5, 13]: 0.55 ± 0.1 %ID/g | tissue uptake at 0.5 h [5, 14]: 1.5 ± 0.04 %ID/g | tissue uptake at 1 h [5, 14]: 1.2 ± 0.16 %ID/g | tissue uptake at 2 h [5, 14]: 0.68 ± 0.11 %ID/g | tissue uptake at 4 h [5, 14]: 0.56 ± 0.08 %ID/g | tissue uptake at 0.5 h [5, 15]: 0.5 ± 0.47 %ID/g | tissue uptake at 1 h [5, 15]: 0.47 ± 0.1 %ID/g | tissue uptake at 2 h [5, 15]: 0.24 ± 0.01 %ID/g | tissue uptake at 4 h [5, 15]: 0.25 ± 0.04 %ID/g | tissue uptake at 0.5 h [5, 16]: 1.22 ± 0.05 %ID/g | tissue uptake at 1 h [5, 16]: 1.33 ± 0.33 %ID/g | tissue uptake at 2 h [5, 16]: 1.21 ± 0.44 %ID/g | tissue uptake at 4 h [5, 16]: 1.73 ± 0.08 %ID/g | tissue uptake at 0.5 h [5, 17]: 0.35 ± 0.03 %ID/g | tissue uptake at 1 h [5, 17]: 0.27 ± 0.02 %ID/g | tissue uptake at 2 h [5, 17]: 0.22 ± 0.02 %ID/g | tissue uptake at 4 h [5, 17]: 0.2 ± 0.01 %ID/g | tissue uptake at 0.5 h [5, 18]: 1.16 ± 0.18 %ID/g | tissue uptake at 1 h [5, 18]: 0.78 ± 0.32 %ID/g | tissue uptake at 2 h [5, 18]: 0.73 ± 0.31 %ID/g | tissue uptake at 4 h [5, 18]: 0.69 ± 0.29 %ID/g | radiochemical purity ([6]; 0.5 h): 99.01% | radiochemical purity ([6]; 1 h): 98.81% | radiochemical purity ([6]; 2 h): 98.55% | radiochemical purity ([6]; 3 h): 99.02% | radiochemical purity ([6]; 6 h): 98.52% | radiochemical purity ([6]; 12 h): 98.01%
